The values below come from the DeepSol protein solubility set.

The nature of this data set: soluble on expression in E. coli; label from the status in PepcDB or PDB records.
For “AAKEEADSRISPGNIFEEKAKFLVMMESSIYAAKRGDALIAQILILAGRLSKNEAPKEALLFMEKTITGEIDLSVAKNLLIAYMRIRREEKQRDLNSVKNDDAIPSDINIDDLTNT”, the “soluble on expression in E. coli” value is “not soluble”.

With “AAVLTQDKNTPTYGPANGKVTVIEFFDYQCVYCSRLAPVMEQVIKAHPQTRFAFKEWPIFGGRWESSLEAAKTGLQIYQQKGADAYLAYHNGIYATGHNEGKLTTADIQQQAKKAGFDAKKAADVEPVLQSINDLAQEIGLSGTPGVIVMPTTGATEASITVFPGLADKASLEAAIKKAGG”, the “soluble on expression in E. coli” value was “not soluble”. For “ADDILNVHRRNAKDPFAVGAVDAPLVITEFSDFECPFCARWSNQTEPTLMEEYVSKGLVRIEWNDLPVNGEHALAAAKAGRAAAAQGKFDEFRKALFEASRNVSGHPNNTLKDFERFARNAGVKDMERFSREAQDSTYDEVLTKAADYAHGLGVSGTPAFVVGTQYISGAQPTEEFIKVIESELKKSPTFSTPSSHQN” the value was “not soluble”; for “ADDPIRMYFEPGHYTVMENCGEFEVRVVRRGDISTYASVEYETQDGTASAGTDFVGRKGLLSFPPGVDEQRFRIEVIDDDVFEEDECFYIRLFNPSEGVKLAVPMIATVMILDDDHAGIFAFTDSVFEITESVGRFE”, “soluble”; for “ADEFGNGDALDLPVGKDAVNSLIRENSHIFSDTQCKVCSAVLISESQKLAHYQSRKHANKVRRYMAINQGEDSVPAKKFKAAPAEISDGEDRSKCCPVCNMTFSSPVVAESHYIGKTHIKNLRLREQ”, “soluble”. For “ADLGTENLYFQSMKPSPEEAQLWSEAFDELLASKYGLAAFRAFLKSEFCEENIEFWLACEDFKKTKSPQKLSSKARKIYTDFIEKEAPKEINIDFQTKTLIAQNIQEATSGCFTTAQKRVYSLMENNSYPRFLESEFYQDLCKKPQ” the value was “soluble”; for “ADQPSPTWGIDRIDQRNLPLDNNYHTDYDGSGVTAFVIDTGVLNTHNEFGGRASSGYDFIDNDYDATDCNGHGTHVAGTIGGSTYGVAKNVNVVGVRVLNCSGSGSNSGVIAGINWVKNNASGPAVANMSLGGGASQATDDAVNAAVAAGITFVVAAGNDNSNACNYSPARAADAITVGSTTSNDSRSSFSNYGTCLDIYAPGSSITSSWYTSNSATNTISGTSMASPHVAGVAALYLDENPNLSPAQVTNLLKTRATADKVTDAKTGSPNKLLFSLA”, “soluble”; for “ADRHYSPIDRFLLQADSALRTLLPFSGQPARPSPAIVEPDGELSEEDTRHIAGLMRINHTGEVCAQALYQGQSLTAKLPEVREAMEEAAEEEIDHLAWCEQRIRQLGSRPSVLNPIFYGLSFGVGAAAGLVSDRVSLGFVAATEDQVCKHLDEHLAQIPQEDRKSRAILEQMRIDEEQHSSNALAAGGLRFPAPVKLGMSLLAKV”, “not soluble”. For “ADVSAAVGATGQSGMTYRLGLSWDWDKSWWQTSTGRLTGYWDAGYTYWEGGDEGAGKHSLSFAPVFVYEFAGDSIKPFIEAGIGVAAFSGTRVGDQNLGSSLNFEDRIGAGLKFANGQSVGVRAIHYSNAGLKQPNDGIESYSLFYKIPI” the value was “soluble”. For “AEVEHYEPLQVHVQLEKVYLDGDVSIEHKHEKVFSMDDFWAAYAGWTLVEQKKGYVLFRKQMDDISPLSKVNGYIGVSDNGVISTFHGRPEPASEPIQSFFQIDLERLESHMQKNLLKGIPFRTKAEFEDVIEHMKTYSG”, the “soluble on expression in E. coli” value is “soluble”. For “AEVTQLSNGIVVATEHNPSAHTASVGVVFGSGAANENPYNNGVSNLWKNIFLSKENSAVAAKEGLALSSNISRDFQSYIVSSLPGSTDKSLDFLNQSFIQQKANLLSSSNFEATKKSVLKQVQDFEDNDHPNRVLEHLHSTAFQNTPLSLPTRGTLESLENLVVADLESFANNHFLNSNAVVVGTGNIKHEDLVNSIESKNLSLQTGTKPVLKKKAAFLGSEVRLRDDTLPKAWISLAVEGEPVNSPNYFVAKLAAQIFGSYNAFEPASRLQGIKLLDNIQEYQLCDNFNHFSLSYKDSGLWGFSTATRNVTMIDDLIHFTLKQWNRLTISVTDTEVERAKSLLKLQLGQLYESGNPVNDANLLGAEVLIKGSKLSLGEAFKKIDAITVKDVKAWAGKRLWDQDIAIAGTGQIEGLLDYMRIRSDMSMMRW” the value was “soluble”. For “AEWSGEYISPYAEHGKKSEQVKKITVSIPLKVLKILTDERTRRKVNNLRHATNSELLCEAFLHAFTGQPLPDDADLRKERSDEIPEAAKEIMREMGINPETWEY” the value was “soluble”; for “AFRGLRKGQFFDENALMLIATIAAFFVGAYEESVSIMVFYSAGEFLQKLAVSRSKKSLKALVDVAPNLAYLKKGDELVSVAPEDLRVNDIVVVKVGEKVPVDGVVVKGESLLDERALSGESMPVNVSENSKVLGGSLNLKAVLEIQVEKMYKDSSIAKVVDLVQ”, “not soluble”. For “AFYINVVPDMVGGRLSSHDRDVLGLARQLAGAEGAVLAVVFGEHKETAFDSAGVDRLLLLDGNESDGYSPEQRVQGLRAVDNQFGPQRWVFPDSRTGGGELGRRFAASLGERPATRVWQVKGEHCTSRAGA” the value was “not soluble”; for “AGHILLLEEEDEAATVVCEMLTAAGFKVIWLVDGSTALDQLDLLQPIVILMAWPPPDQSCLLLLQHLREHQADPHPPLVLFLGEPPVDPLLTAQASAILSKPLDPQLLLTTLQGLCPPN”, “soluble”. For the sequence “AGHMQQEAVAPEDSAVVKLATDSFNEYIQSHDLVLAEFFAPWCGHCKNMAPEYVKAAETLVEKNITLAQIDCTENQDLCMEHNIPGFPSLKIFKNSDVNNSIDYEGPRTAEAIVQFMIKQSQPAVAVVADLPAYLANETFVTPVIVQSGKIDADFNATFYSMANKHFNDYDFVSAENADDDFKLSIYLPSAMDEPVVYNGKKADIADADVFEKWLQVEALPYFGEIDGSVFAQYVESGLPLGYLFYNDEEELEEYKPLFTELAKKNRGLMNFVSIDARKFGRHAGNLNMKEQFPLFAIHDMTEDLKYGLPQLSEEAFDELSDKIVLESKAIESLVKDFLKGDASPIVKSQEIFENQDSSVFQLVGKNHDEIVNDPKKDVLVLYYAPWCGHCKRLAPTYQELADTYANATSDVLIAKLDHTENDVRGVVIEGYPTIVLYPGGKKSESVVYQGSRSLDSLFDFIKENGHFDVDGKALYEEAQEKAAEEADADAELADEEDAIHDEL”, the “soluble on expression in E. coli” value was “soluble”. Turning to “AGSDEVNRNECKTVVPLHTWVLISNFKLSYNILRRADGTFERDLGEYLDRRVPANARPLEGVSSFDHIIDQSVGLEVRIYRAAAEGDAEEGAAAVTRPILEFLTDAPAAEPFPVIIFFHGGSFVHSSASSTIYDSLCRRFVKLSKGVVVSVNYRRAPEHRYPCAYDDGWTALKWVMSQPFMRSGGDAQARVFLSGDSSGGNIAHHVAVRAADEGVKVCGNILLNAMFGGTERTESERRLDGKYFVTLQDRDWYWKAYLPEDADRDHPACNPFGPNGRRLGGLPFAKSLIIVSGLDLTCDRQLAYADALREDGHHVKVVQCENATVGFYLLPNTVHYHEVMEEISDFLNANLYYGSHHHHHHHHHH”, the “soluble on expression in E. coli” value is on record as “soluble”. For “AHHHHHHGSAKRVHLFDWHKEHAKKIEEFAGWEMPIWYSSIKEEHLAVRNAVGVFDVSHMGEILFKGKDALKFLQYTTTNDISKPPAISGTYTLVLNERGAIKDETLVFNMGNNEYLMICDADAFEKLYAWFTYLKKTIEQFTKLDLEIELKTYDIAMFAVQGPKARDLAMDLFGIDINEMWWFQGRWVELDGIKMLLSRSGYTGENGFEVYIEDLNPYHPDEEKRGKPEKALHVWERILEEGQKYGIKPAGLGARDTLRLEAGYTLYGNDTKELQLLSTDIDEVTPLQANLEFAIYWDKDFIGKDALLKQKEKGLGRKLVHFKMLEKSVPREGYKVYANGELIGEVTSGTLSPLLNIGIGIAFVKEEYAKPGVEIEIDIRGTRKKAITVTPPFYDPKKYGLFREE” the value was “soluble”; for “AHHHHHHGSDGLTAQEFLTLVKLERGMYLSKEEKDDVERIKEKNKRVLELIKDHHKDFDVYLTGHIDFDNLLTMYEIYKELKKRGVNVYYPGLFWANWREKGEIEYKIKNNAKILLVITQTISFGTSVDVGFFIHRKINEEEAKIVFCYTGPSYEFESLKTHPASIYIDYFTRDIEDAIEKTLEFLSL”, “soluble”.
